Test results reported in the supplement of paper PMC10598134.
± gives the standard deviation.

Assay: collision cross section of modified peptide (TIMS, N2, iRT-aligned); higher = larger / more extended gas-phase ion
Outline: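 Collision cross section was derived from the Mason-Schamp equation. Each value averages 1–3 technical replicates of the most abundant feature per charge state, measured on a timsTOF Pro/HT in dda-PASEF mode (nitrogen, ~2.4 mbar) after a 120-min nanoflow C18 gradient at 60 °C. Synthetic peptide pools (~100 fmol/µL in 2% acetonitrile/0.1% formic acid, iRT standard spiked 1:40) were identified with MaxQuant, and 1/K0 was calibrated with three reference ions and aligned run-wise to the median iRT peptide deviation.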

[1] = charge state: 2, modification: Trimethyl (K)
[2] = charge state: 3, modification: Trimethyl (K)
[3] = charge state: 2, modification: Biotin
[4] = charge state: 2, modification: GlyGly (K)
[5] = charge state: 3, modification: GlyGly (K)
[6] = charge state: 2, modification: Formyl
[7] = charge state: 2, modification: Crotonyl
[8] = charge state: 2, modification: Malonyl
[9] = charge state: 2, modification: Succinyl
[10] = charge state: 3, modification: Succinyl
[11] = charge state: 2, modification: Nitro (Y)
[12] = charge state: 2, modification: Dimethyl (K)
[13] = charge state: 3, modification: Dimethyl (K)
[14] = charge state: 3, modification: Methyl (K)
[15] = charge state: 2, modification: Butyryl
[16] = charge state: 2, modification: Methyl (K)
[17] = charge state: 2, modification: Glutarylation
[18] = charge state: 3, modification: Glutarylation
[19] = charge state: 2, modification: Acetyl (K)
[20] = charge state: 3, modification: Malonyl
[21] = charge state: 3, modification: Butyryl
[22] = charge state: 2, modification: HexNAc (ST)
[23] = charge state: 2, modification: Phospho (Y)
[24] = charge state: 2, modification: Citrullination (R)
[25] = charge state: 3, modification: Citrullination (R)
[26] = charge state: 3, modification: Crotonyl

For “ITESVAETAQTIKK [_ITESVAETAQTIK(Trimethyl (K))K_]”, the collision cross section [1] was 451.09 ± 1 Å² and the collision cross section [2] was 496.11 ± 2.8 Å².

For GSLEKGSPEDK [_GSLEK(Biotin)GSPEDK_], the collision cross section [3] was 382.87 Å².

ASEALLKQLK [_ASEALLK(GlyGly (K))QLK_] gave a collision cross section [4] of 378.14 ± 0.54 Å² and a collision cross section [5] of 443.25 ± 0.74 Å².

Substance KFGVLSDNFK [_K(Formyl)FGVLSDNFK_] has a collision cross section [6] of 368.1 ± 0.89 Å².

Substance SDDESSQKDIK [_SDDESSQK(Crotonyl)DIK_] has a collision cross section [7] of 379.43 ± 0.8 Å².

Substance “SDSGKPYYYNSQTK [_SDSGK(Malonyl)PYYYNSQTK_]” has a collision cross section [8] of 422.4 ± 0.57 Å².

Work on “ANEKTESSSAQQVAVSR [_ANEK(Succinyl)TESSSAQQVAVSR_]” yielded a collision cross section [9] of 443.48 ± 0.35 Å² and a collision cross section [10] of 533.43 ± 0.35 Å².

In the case of PDTQYTGR [_PDTQY(Nitro (Y))TGR_], the collision cross section [11] is reported as 325.57 ± 0.55 Å².

“DESFLGKLGGTLAR [_DESFLGK(Trimethyl (K))LGGTLAR_]” showed a collision cross section [2] of 477.03 ± 0.84 Å².

“VGLQVVAVKAPGFGDNR [_VGLQVVAVK(Dimethyl (K))APGFGDNR_]” gave a collision cross section [12] of 465.4 ± 1.7 Å² and a collision cross section [13] of 490.92 ± 1.2 Å².

Substance “VLDSGAPIKIPVGPETLGR [_VLDSGAPIK(Methyl (K))IPVGPETLGR_]” has a collision cross section [14] of 510.82 ± 2.8 Å².

ASEALLKQLK [_ASEALLK(Butyryl)QLK_] gave a collision cross section [15] of 379.45 ± 0.72 Å².

For GAEKTEVAEPR [_GAEK(Malonyl)TEVAEPR_], the collision cross section [8] was 372.62 ± 0.63 Å².

Work on YEITEQR [_Y(Nitro (Y))EITEQR_] yielded a collision cross section [11] of 327.03 ± 0.71 Å².

In the case of “GERGPPGPPGK [_GERGPPGPP(Hydroxyproline)GK_]”, the collision cross section (charge state: 2, modification: Hydroxyproline) is reported as 326.03 ± 0.88 Å² and the collision cross section (charge state: 3, modification: Hydroxyproline) is reported as 407.49 ± 18 Å².

“ASDTSSETVFGKR [_ASDTSSETVFGK(Methyl (K))R_]” gave a collision cross section [16] of 406.57 ± 1.3 Å² and a collision cross section [14] of 477.14 ± 3.8 Å².

Work on “GETASKLQSEISR [_GETASK(Gluratylation)LQSEISR_]” yielded a collision cross section [17] of 403.5 ± 0.6 Å² and a collision cross section [18] of 470.57 Å².

“ASEALLKQLK [_ASEALLK(Gluratylation)QLK_]” gave a collision cross section [17] of 377.97 ± 0.1 Å².

Substance “GADFLVTEVENGGSLGSKK [_GADFLVTEVENGGSLGSK(Acetyl (K))K_]” has a collision cross section [19] of 465.51 Å² and a collision cross section (charge state: 3, modification: Acetyl (K)) of 541.97 Å².

YTCSFCGK [_Y(Nitro (Y))TCSFCGK_] showed a collision cross section [11] of 334.4 ± 0.71 Å².

With “VLTANSNPSSPSAAKR [_VLTANSNPSSPSAAK(Malonyl)R_]” the collision cross section [8] was 426.78 ± 1.6 Å² and the collision cross section [20] was 452.99 Å².

“IVFSGNLFQHQEDSKK [_IVFSGNLFQHQEDSK(Butyryl)K_]” showed a collision cross section [15] of 504.05 ± 1 Å² and a collision cross section [21] of 542.63 ± 1.2 Å².

For LQLEIDQKK [_LQLEIDQK(Methyl (K))K_], the collision cross section [16] was 367.47 ± 2.8 Å² and the collision cross section [14] was 429.39 ± 5.2 Å².

In the case of “ITESVAETAQTIKK [_ITESVAETAQTIK(Succinyl)K_]”, the collision cross section [9] is reported as 424.69 ± 1.1 Å² and the collision cross section [10] is reported as 512.63 ± 2.6 Å².

For “DTGEKLTVAENEAETK [_DTGEK(Butyryl)LTVAENEAETK_]”, the collision cross section [15] was 448.65 ± 0.25 Å².

“TVSKVDDFLANEAK [_TVSK(Butyryl)VDDFLANEAK_]” gave a collision cross section [15] of 424.02 ± 0.86 Å².

Work on “ASDTSSETVFGKR [_ASDTSSETVFGK(Dimethyl (K))R_]” yielded a collision cross section [12] of 409.3 ± 1.1 Å² and a collision cross section [13] of 469.84 ± 1.6 Å².

SSFAYKDQNENR [_SSFAYK(Butyryl)DQNENR_] gave a collision cross section [15] of 402.63 ± 0.85 Å² and a collision cross section [21] of 462.59 ± 3.8 Å².

For “ILDLKTGTVK [_ILDLK(Trimethyl (K))TGTVK_]”, the collision cross section [1] was 360.39 ± 1.1 Å².

“TSSEASVSSSVAK [_T(HexNAc (ST))SSEASVSSSVAK_]” showed a collision cross section [22] of 394.41 ± 0.76 Å².

“LQAAYAGDKADDIQK [_LQAAYAGDK(Formyl)ADDIQK_]” gave a collision cross section [6] of 428.24 ± 0.79 Å².

For “VDVEVPDVSLEGPEGKLK [_VDVEVPDVSLEGPEGK(Dimethyl (K))LK_]”, the collision cross section [12] was 459.72 ± 1.8 Å² and the collision cross section [13] was 548.43 ± 0.78 Å².

With LYLPVQNK [_LY(Phospho (Y))LPVQNK_] the collision cross section [23] was 343.68 ± 6.9 Å².

With FYTEDSPGLK [_FY(Phospho (Y))TEDSPGLK_] the collision cross section [23] was 366.92 ± 0.064 Å².

LEKTIDDLEEK [_LEK(Acetyl (K))TIDDLEEK_] gave a collision cross section [19] of 403.37 ± 1 Å².

In the case of VNALKNLQVK [_VNALK(Butyryl)NLQVK_], the collision cross section [15] is reported as 377.18 ± 0.8 Å².

“TEVLSPNSKVESK [_TEVLSPNSK(Trimethyl (K))VESK_]” gave a collision cross section [1] of 405.78 ± 0.61 Å² and a collision cross section [2] of 479.92 ± 1.6 Å².

In the case of “IHVQSSSDSSDEPAEKR [_IHVQSSSDSSDEPAEK(Butyryl)R_]”, the collision cross section [15] is reported as 452.33 ± 0.51 Å² and the collision cross section [21] is reported as 504.47 ± 2.6 Å².

With AQSYAQQLGR [_AQSY(Nitro (Y))AQQLGR_] the collision cross section [11] was 354.17 ± 0.17 Å².

YVGESEANIR [_Y(Nitro (Y))VGESEANIR_] gave a collision cross section [11] of 357.77 ± 0.55 Å².

In the case of “IHVQSSSDSSDEPAEKR [_IHVQSSSDSSDEPAEK(Gluratylation)R_]”, the collision cross section [17] is reported as 455.23 ± 1.5 Å² and the collision cross section [18] is reported as 511.69 ± 2 Å².

LAPEYEAAATR [_LAPEY(Nitro (Y))EAAATR_] showed a collision cross section [11] of 362.69 ± 1.2 Å² and a collision cross section (charge state: 3, modification: Nitro (Y)) of 436.11 ± 1.1 Å².

Substance “ITGKNQVTATK [_ITGK(Trimethyl (K))NQVTATK_]” has a collision cross section [1] of 375.05 ± 1.7 Å² and a collision cross section [2] of 426.22 Å².

Work on “GEVGAGAGPGAQAGPSAKR [_GEVGAGAGPGAQAGPSAK(Butyryl)R_]” yielded a collision cross section [15] of 426.32 ± 1.1 Å² and a collision cross section [21] of 483.04 ± 4.4 Å².

Substance SLKLNTAEDAK [_SLK(Succinyl)LNTAEDAK_] has a collision cross section [9] of 377.2 ± 0.87 Å².

“DLGKFQVATDALK [_DLGK(Succinyl)FQVATDALK_]” gave a collision cross section [9] of 409.86 ± 0.37 Å² and a collision cross section [10] of 478.58 Å².

Substance “YEQEHAAIQDKLFQVAK [_YEQEHAAIQDK(hydroxyisobutyryl)LFQVAK_]” has a collision cross section (charge state: 3, modification: hydroxyisobutyryl) of 519.87 ± 2 Å².

With “DFAFYNPRLQGK [_DFAFYNPR(Citrullination (R))LQGK_]” the collision cross section [24] was 400.16 ± 0.22 Å² and the collision cross section [25] was 473.76 Å².

“GEVGAGAGPGAQAGPSAKR [_GEVGAGAGPGAQAGPSAK(Succinyl)R_]” showed a collision cross section [9] of 417.99 ± 0.36 Å² and a collision cross section [10] of 474.67 ± 1.5 Å².

With “LNAIYQNNLTK [_LNAIY(Phospho (Y))QNNLTK_]” the collision cross section [23] was 390.25 ± 0.67 Å².

“TAIQAAGYPDK [_TAIQAAGY(Phospho (Y))PDK_]” gave a collision cross section [23] of 361.65 ± 9.9 Å².

TLDEILQEKK [_TLDEILQEK(GlyGly (K))K_] gave a collision cross section [4] of 390.82 ± 2.5 Å² and a collision cross section [5] of 438.72 ± 1.6 Å².

Work on “ATVASSTQKFQDLGVK [_ATVASSTQK(Malonyl)FQDLGVK_]” yielded a collision cross section [8] of 440.93 ± 1 Å².

With “GADFLVTEVENGGSLGSKK [_GADFLVTEVENGGSLGSK(Crotonyl)K_]” the collision cross section [7] was 475.14 ± 1.9 Å² and the collision cross section [26] was 548.96 Å².

Substance SISQSISGQK [_S(HexNAc (ST))ISQSISGQK_] has a collision cross section [22] of 366.39 ± 0.12 Å².

LGNDFHTNKR [_LGNDFHTNK(Crotonyl)R_] showed a collision cross section [7] of 379.22 ± 1.3 Å² and a collision cross section [26] of 445.34 ± 2 Å².

With TLDEILQEKK [_TLDEILQEK(Succinyl)K_] the collision cross section [9] was 382.2 ± 5.9 Å².

“TLQKQSVVYGGK [_TLQK(Acetyl (K))QSVVYGGK_]” showed a collision cross section [19] of 392.07 ± 0.61 Å².

For ISALQGKLSK [_ISALQGK(Crotonyl)LSK_], the collision cross section [7] was 358.67 ± 0.88 Å².

For “GGNFGGRGGYGGGGGGSR [_GGNFGGR(Citrullination (R))GGYGGGGGGSR_]”, the collision cross section [24] was 392.17 ± 1 Å² and the collision cross section [25] was 481.82 Å².

For “RGATPPAPPR [_R(Citrullination (R))GATPPAPPR_]”, the collision cross section [24] was 332.88 ± 2.4 Å².

With SEASSEFAKK [_SEASSEFAK(Succinyl)K_] the collision cross section [9] was 351.69 ± 0.87 Å².

For VFSIISSEKELK [_VFSIISSEK(Butyryl)ELK_], the collision cross section [15] was 413.27 ± 0.78 Å².

Substance LEQVEKELLR [_LEQVEK(Malonyl)ELLR_] has a collision cross section [8] of 382.93 ± 0.62 Å².

In the case of “VYIASSSGSTAIKK [_VYIASSSGSTAIK(GlyGly (K))K_]”, the collision cross section [4] is reported as 437.45 ± 1.4 Å² and the collision cross section [5] is reported as 498.73 ± 3.9 Å².

“SLGEPAAGEGSAKR [_SLGEPAAGEGSAK(Gluratylation)R_]” gave a collision cross section [17] of 384.54 ± 0.66 Å² and a collision cross section [18] of 479.54 ± 1 Å².

“DYSAPVNFISAGLKK [_DYSAPVNFISAGLK(Malonyl)K_]” gave a collision cross section [8] of 442.5 ± 1.7 Å² and a collision cross section [20] of 530.16 Å².

With ASEALLKQLK [_ASEALLK(Biotin)QLK_] the collision cross section [3] was 396.36 ± 2.2 Å².

Substance ASDTSSETVFGKR [_ASDTSSETVFGK(Biotin)R_] has a collision cross section [3] of 406.15 Å².

Substance “TPNLYIYSKK [_TPNLYIYSK(hydroxyisobutyryl)K_]” has a collision cross section (charge state: 2, modification: hydroxyisobutyryl) of 388.68 ± 3 Å².

Work on “DTPTSAGPNSFNKGK [_DTPTSAGPNSFNK(Acetyl (K))GK_]” yielded a collision cross section [19] of 406.79 ± 1.5 Å².
